# Reference: PMC3378865 (Nucleic Acids Research, 2012)
# Molecular target: the molecule itself
# Assay: cross-linking
protein,measurement,value
"OxyR (PA5344) of Pseudomonas aeruginosa PAO1 with a carboxyl-terminal His-tag (natural protein, UniProt Q9HTL4 1-310, looked up) MTLTELRYIVTLAQEQHFGRAAERCHVSQPTLSVGVKKLEDELGVLIFERSKSAVRLTPVGEGIVAQAQKVLEQAQGIRELAQAGKNQLAAPLKVGAIYTIGPYLFPHLIPQLHRVAPQMPLYIEENFTHILRDKLRTGELDAIIIALPFQEADVLTKPLFDEPFYVLMPADHPWTAKASIDSELLNDKSLLLLGEGHCFRDQVLEACPTVRKGDENKHTTVESSSLETIRHMVASGLGVSVLPFSAVDSHHYAPGVIEVRPFSAPVPFRTVAIAWRASFPRPRAIEVLADSIRLCSVARPQTQEQPQIA",stoichiometry N,2
